Test results as given in patent US20110269148A1 (published 2011).

Biological target: protein A on the surface of Staphylococcus aureus cells (ATCC 12598) (Staphylococcus aureus, UniProt P38507 37-477)
Assay: cell-based or functional assay

B1: sdAb-NAEB: single domain antibody HVHP428 (human VH) conjugated to rhodamine 6G gold nanoaggregate embedded beads with silica shell (other)
VH: QLQLQESGGGLVQPGGSLRLSCAASGFTFSSYAMSWFRQAPGKGLEWVGFIRSKAYGGTTEYAASVKGRFTISRDDSKSIAYLQMNSLRAEDTAMYYCARRAKDGYNSPEDYWGQGTLVTVSS
modifications: covalently coupled by EDC/NHS chemistry to the amine- or carboxylate-modified silica shell of the bead; coupled residues not stated
  agglutination relative to the sdAb pentamer (Ryan et al., 2009; MAC value 3×10^13 pentamer mL^-1): > 100 fold
